± gives the uncertainty stated by the source.
Assay: protein stability index of a GFP-peptide fusion (yeast GPS) (PSI 1-4); higher = more stable; sorted into four equal gates, so the index is relative within each strain
Method in brief: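 Mid-log yeast cultures in leucine-free medium, carrying a pooled plasmid library, were sorted into four equal gates by their GFP/Cherry fluorescence ratio. Each plasmid expressed Cherry along with GFP fused upstream of a tiled 17-residue yeast protein peptide. Plasmids recovered from each gate were PCR-amplified and Illumina-sequenced, with reads assigned to strains by barcodes. The protein stability index was obtained by summing each gate's read frequency weighted by its gate number.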

Sequence	protein stability index (doa10∆)	protein stability index (pdr5∆)	protein stability index (san1∆)	protein stability index (ubr1∆)
YRVTLESILQMNQGEGE [RPC34]	2.94 ± 0.19	3.16 ± 0.092	3.46 ± 0.26	2.97 ± 0.12
ALLIAGHDADDGYQLFH [PUP2]	2.29 ± 0.16	2.86 ± 0.17	3.22 ± 0.12	2.66 ± 0.13
VHDKIWCCRSGSAADTQ [PRE3]	2.59 ± 0.07	2.92 ± 0.076	2.64 ± 0.081	2.65 ± 0.048
WKYNNFLQKFEIAFHLT [YML103C/NUP188]	2.36 ± 0.048	2.19 ± 0.032	2.01 ± 0.052	2.36 ± 0.027
VVILARAKALGIKVTNP [RPL32]	3.16 ± 0.14	3.2 ± 0.16	2.55 ± 0.12	2.93 ± 0.076
DQVVVRGIDTLQKKVAS [RPB3]	2.39 ± 0.28	3.29 ± 0.19	2.68 ± 0.28	
IKVWTIKGQCLATLLGH [ASC1]	2.22 ± 0.085	1.59 ± 0.099	1.69 ± 0.1	1.39 ± 0.057
LARACAAQTNATFLKLA [RPT5]	2.76 ± 0.13	2.93 ± 0.089	2.93 ± 0.099	2.6 ± 0.27
LKALSHHYNPKTKKLNL [BRR2]	2.46 ± 0.088	2.4 ± 0.086	2.33 ± 0.11	2.69 ± 0.053
CFSINDDPVPTPPAIEH [SSN2]	2.42 ± 0.25	2.1 ± 0.26		
IAHENEQKWLIYDKKDH [SRB8]	2.88 ± 0.13	2.83 ± 0.093	2.77 ± 0.17	2.8 ± 0.071
TKFFDDAKSTPLRLRLY [RPN9]	3.26 ± 0.24	3.02 ± 0.15		2.89 ± 0.17
AQAQAQAQAQAHAQHQP [GAL11]	2.81 ± 0.029	2.926 ± 0.023	2.834 ± 0.027	3.032 ± 0.024
PAFKPTEKKFTKEQYAA [RPL5]	2.93 ± 0.089	3.12 ± 0.083	2.79 ± 0.067	3.04 ± 0.1
NTSLNINGWKFESLPLK [SWP82]	2.88 ± 0.055	2.96 ± 0.05	2.96 ± 0.053	3.06 ± 0.043
LSGGGHDNHGNKLGNKR [CDC53]				3.65 ± 0.23
PVIGVFQKFLTGHPKGA [FAS2]	3.34 ± 0.19	2.79 ± 0.16	2.57 ± 0.2	3.52 ± 0.24
RNEKRMFLEFQSTQTDL [SMC2]	2.53 ± 0.19	2.48 ± 0.19	3.24 ± 0.14	2.61 ± 0.12
HYLVNLTSPAFGPHVDV [GRR1]	2.27 ± 0.14	2.87 ± 0.12	2.16 ± 0.25	3.42 ± 0.28
SMFLRIDYSNSQIRLYA [RGR1]	2.9 ± 0.076	2.44 ± 0.066	2.4 ± 0.068	2.44 ± 0.043
ILLRYHHNDISNDSQSH [YCG1]	1.65 ± 0.15	1.28 ± 0.13	1.96 ± 0.2	1.51 ± 0.081
AFGFVDRTLPHFSKDDY [RPO21]	2.81 ± 0.068	3.17 ± 0.05	2.85 ± 0.052	3.16 ± 0.035
ESQLQMDRTSLRKQYSA [SMC3]	2.47 ± 0.08	2.53 ± 0.096	2.75 ± 0.067	2.86 ± 0.094
KSTYRTPNFDDVLKENN [RIP1]	1.54 ± 0.087	1.45 ± 0.12	1.38 ± 0.14	2.1 ± 0.079
ADKRGVLTGGYLDQHKR [SMC3]	2.46 ± 0.11	2.54 ± 0.1	2.72 ± 0.074	2.94 ± 0.052
PMPIITFLSEWGMEPLE [RPB2]	2.7 ± 0.06	2.96 ± 0.09	2.51 ± 0.08	2.76 ± 0.071
RKINLFYLYMLVQKFGG [SWI1]	1.59 ± 0.099	1.23 ± 0.048	1.16 ± 0.18	1.08 ± 0.072

Sequence	protein stability index (doa10∆)	protein stability index (pdr5∆)	protein stability index (san1∆)	protein stability index (ubr1∆)
ADDHASVQINVAKVDEE [RPS21A]	3.26 ± 0.062	3.08 ± 0.072	3.13 ± 0.045	3.26 ± 0.04
YQEDIFVSESPSFVKSG [ISW2]	2.85 ± 0.098	2.47 ± 0.077	2.48 ± 0.13	2.73 ± 0.045
LRKQYSAIDEEIEELID [SMC3]		2.98 ± 0.2		3.26 ± 0.2
DNSPSEDFMDIPKPRTA [SNF2]	2.57 ± 0.16	2.83 ± 0.11		2.77 ± 0.19
SQFLKRVHANLQCISQI [SNF11]	1.17 ± 0.043	1.25 ± 0.041	1.21 ± 0.07	1.2 ± 0.057
PITASTSRVFAKIISKA [YML103C/NUP188]		3.02 ± 0.14	2.53 ± 0.21	
ELIIDPLFKKALVDFDE [BRN1]	3.45 ± 0.16	2.98 ± 0.14	3.01 ± 0.24	3.29 ± 0.13
LVFCKHITSVPISAVLR [GRR1]	1.61 ± 0.053	1.72 ± 0.05	1.92 ± 0.088	1.71 ± 0.042
HYPEIEDLVDRIENPEK [RPP0]	2.84 ± 0.1	3.17 ± 0.081	2.97 ± 0.12	3.05 ± 0.072
IGVETGSEPLIQQVVEY [PRP28]	2.99 ± 0.065	3.08 ± 0.084	2.95 ± 0.067	2.73 ± 0.16
GQLLKDHLIIEPEEEKS [ARP9]	2.15 ± 0.084	1.77 ± 0.066	1.6 ± 0.096	1.71 ± 0.038
NLSSLIVEINNVSNTFN [YJL041W/NSP1]	2.45 ± 0.043	2.72 ± 0.046	2.62 ± 0.04	2.58 ± 0.032
KQENSSRFTNVSVIAPE [YMR153W/NUP53]	2.71 ± 0.065	2.54 ± 0.055	1.59 ± 0.062	2.49 ± 0.033
TNSVRLFEVNPSQTLFS [SRP21]	2.65 ± 0.09	2.51 ± 0.078	2.2 ± 0.073	2.56 ± 0.047
QELQIKRDVLDDLYRKL [CSE2]	2.27 ± 0.14	2.19 ± 0.15		
PQAILAKNSIIDSSNLP [SWI1]	2.02 ± 0.061	2.42 ± 0.061	2.32 ± 0.05	2.36 ± 0.04
YELYINKLTILGRDYPI [IRR1]	1.31 ± 0.032	1.57 ± 0.038	1.44 ± 0.055	2.04 ± 0.032
QNHNSKSTDNSAIRQVF [IRR1]	2.61 ± 0.039	2.8 ± 0.037	2.85 ± 0.042	2.739 ± 0.027
VGRFSTISSADFIQNVG [ECM29]	3.16 ± 0.1	2.65 ± 0.079	3.03 ± 0.08	2.72 ± 0.088
KLLKIPKFISEALAFTS [YDL116W/NUP84]	2.32 ± 0.093	2.46 ± 0.086	2.24 ± 0.1	2.75 ± 0.05
NNTTPSSTGNANTSNNL [YJL041W/NSP1]	3.34 ± 0.093	3.29 ± 0.08	3.46 ± 0.095	3.37 ± 0.07
GVARIYASFNDTFVHVT [RPS14B]	1.64 ± 0.082	2 ± 0.085	1.92 ± 0.077	2.05 ± 0.095
ITSLQDSSSQCIVDFTN [YMR129W/POM152]	2.67 ± 0.067	2.92 ± 0.066	2.69 ± 0.058	2.85 ± 0.059
VKKAVTVHSKSRTRAHA [RPL19A]	3.2 ± 0.1	3.2 ± 0.13	2.67 ± 0.12	3.16 ± 0.1
LMNGVKPFKSFLKKNII [FAS1]			3.36 ± 0.16	3.27 ± 0.087
ILEVGALASIQTFNFDS [RPN12]	2.31 ± 0.095	2.65 ± 0.18	2.96 ± 0.17	2.86 ± 0.077

From the supplement of paper PMC9732359
